Assay results published in the supplement of paper PMC11246515.
± gives the standard deviation of the averaged measurements.

Assay: total protein half-life in vivo (active degradation + dilution); higher = more stable protein
[1] = E. coli NCM3722 delta-clpP delta-lon delta-hslV, growth: N-lim chemostat, doubling time 6 h
[2] = E. coli NCM3722 delta-clpP, growth: N-lim chemostat, doubling time 6 h
[3] = E. coli NCM3722 delta-hslV, growth: N-lim chemostat, doubling time 6 h
[4] = E. coli NCM3722 delta-lon, growth: N-lim chemostat, doubling time 6 h
[5] = E. coli NCM3722 delta-smpB, growth: N-lim chemostat, doubling time 6 h
[6] = wild type E. coli NCM3722, growth: C-lim chemostat, doubling time 3 h
[7] = wild type E. coli NCM3722, growth: C-lim chemostat, doubling time 6 h
[8] = wild type E. coli NCM3722, growth: C-lim chemostat, doubling time 12 h
[9] = wild type E. coli NCM3722, growth: N-lim chemostat, doubling time 6 h
[10] = wild type E. coli NCM3722, growth: N-lim chemostat, doubling time 12 h
[11] = wild type E. coli NCM3722, growth: P-lim chemostat, doubling time 6 h
[12] = wild type E. coli NCM3722, growth: P-lim chemostat, doubling time 12 h

Sequence | total protein half-life in vivo [1] [h] | total protein half-life in vivo [2] [h] | total protein half-life in vivo [3] [h] | total protein half-life in vivo [4] [h] | total protein half-life in vivo [5] [h] | total protein half-life in vivo [6] [h] | total protein half-life in vivo [7] [h] | total protein half-life in vivo [8] [h] | total protein half-life in vivo [9] [h] | total protein half-life in vivo [10] [h] | total protein half-life in vivo [11] [h] | total protein half-life in vivo [12] [h]
MKVLVIGNGGREHALAWKAAQSPLVETVFVAPGNAGTALEPALQNVAIGVTDIPALLDFAQNEKIDLTIVGPEAPLVKGVVDTFRAAGLKIFGPTAGAAQLEGSKAFTKDFLARHKIPTAEYQNFTEVEPALAYLREKGAPIVIKADGLAAGKGVIVAMTLEEAEAAVHDMLAGNAFGDAGHRIVIEEFLDGEEASFIVMVDGEHVLPMATSQDHKRVGDKDTGPNTGGMGAYSPAPVVTDDVHQRTMERIIWPTVKGMAAEGNTYTGFLYAGLMIDKQGNPKVIEFNCRFGDPETQPIMLRMKSDLVELCLAACESKLDEKTSEWDERASLGVVMAAGGYPGDYRTGDVIHGLPLEEVAGGKVFHAGTKLADDEQVVTNGGRVLCVTALGHTVAEAQKRAYALMTDIHWDDCFCRKDIGWRAIEREQN | 5.13 ± 0.32 | 4.89 ± 0.38 | 4.3 ± 0.28 | 4.91 ± 0.24 | 4.44 ± 0.17 | 3.38 ± 0.24 | 6.37 ± 0.4 | 10.5 ± 0.14 | 4.62 ± 0.25 | 7.03 ± 0.35 | 6.097 ± 0.048 | 12.7 ± 0.7
MKVMRTTVATVVAATLSMSAFSVFAEASLTGAGATFPAPVYAKWADTYQKETGNKVNYQGIGSSGGVKQIIANTVDFGASDAPLSDEKLAQEGLFQFPTVIGGVVLAVNIPGLKSGELVLDGKTLGDIYLGKIKKWDDEAIAKLNPGLKLPSQNIAVVRRADGSGTSFVFTSYLAKVNEEWKNNVGTGSTVKWPIGLGGKGNDGIAAFVQRLPGAIGYVEYAYAKQNNLAYTKLISADGKPVSPTEENFANAAKGADWSKTFAQDLTNQKGEDAWPITSTTFILIHKDQKKPEQGTEVLKFFDWAYKTGAKQANDLDYASLPDSVVEQVRAAWKTNIKDSSGKPLY [P0AG82] | 4.1 ± 0.22 | 5.18 ± 0.54 | 6.12 ± 0.3 | 6.31 ± 0.76 | 6.08 ± 0.12 | 3.42 ± 0.057 | 6.04 ± 0.31 | 11.7 ± 0.42 | 6.11 ± 0.43 | 12.9 ± 0.66 | 5.67 ± 0.093 | 11.5 ± 0.23
MKVTFEQLKAAFNRVLISRGVDSETADACAEMFARTTESGVYSHGVNRFPRFIQQLENGDIIPDAQPKRITSLGAIEQWDAQRSIGNLTAKKMMDRAIELAADHGIGLVALRNANHWMRGGSYGWQAAEKGYIGICWTNSIAVMPPWGAKECRIGTNPLIVAIPSTPITMVDMSMSMFSYGMLEVNRLAGRQLPVDGGFDDEGNLTKEPGVIEKNRRILPMGYWKGSGMSIVLDMIATLLSDGASVAEVTQDNSDEYGISQIFIAIEVDKLIDGPTRDAKLQRIMDYVTSAERADENQAIRLPGHEFTTLLAENRRNGITVDDSVWAKIQAL | – | – | – | – | – | 2.77 ± 0.16 | 5.23 ± 0.17 | 9.43 ± 1.9 | – | – | – | –
MKVTLPEFERAGVMVVGDVMLDRYWYGPTSRISPEAPVPVVKVNTIEERPGGAANVAMNIASLGANARLVGLTGIDDAARALSKSLADVNVKCDFVSVPTHPTITKLRVLSRNQQLIRLDFEEGFEGVDPQPLHERINQALSSIGALVLSDYAKGALASVQQMIQLARKAGVPVLIDPKGTDFERYRGATLLTPNLSEFEAVVGKCKTEEEIVERGMKLIADYELSALLVTRSEQGMSLLQPGKAPLHMPTQAQEVYDVTGAGDTVIGVLAATLAAGNSLEEACFFANAAAGVVVGKLGTSTVSPIELENAVRGRADTGFGVMTEEELKLAVAAARKRGEKVVMTNGVFDILHAGHVSYLANARKLGDRLIVAVNSDASTKRLKGDSRPVNPLEQRMIVLGALEAVDWVVSFEEDTPQRLIAGILPDLLVKGGDYKPEEIAGSKEVWANGGEVLVLNFEDGCSTTNIIKKIQQDKKG | 5.6 ± 0.12 | 5.98 ± 1.2 | 5.19 ± 0.094 | 5.89 ± 0.14 | 5.15 ± 0.11 | 3.1 ± 0.062 | 5.74 ± 0.21 | 11.032 ± 0.011 | 5.3 ± 0.34 | 9.17 ± 0.1 | 5.82 ± 0.12 | 12.3 ± 0.15
MKWFNTLSHNRWLEQETDRIFDFGKNSVVPTGFGWLGNKGQIKEEMGTHLWITARMLHVYSVAAAMGRPGAYSLVDHGIKAMNGALRDKKYGGWYACVNDEGVVDASKQGYQHFFALLGAASAVTTGHPEARKLLDYTIEIIEKYFWSEEEQMCLESWDEAFSKTEEYRGGNANMHAVEAFLIVYDVTHDKKWLDRAIRVASVIIHDVARNNHYRVNEHFDTQWNPLPDYNKDNPAHRFRAFGGTPGHWIEWGRLMLHIHAALEARCEQPPAWLLEDAKGLFNATVRDAWAPDGADGIVYTVDWEGKPVVRERVRWPIVEAMGTAYALYTVTGDRQYETWYQTWWEYCIKYLMDYENGSWWQELDADNKVTTKVWDGKQDIYHLLHCLVIPRIPLAPGMAPAVAAGLLDINAK | 7.17 | – | – | – | – | – | 4.37 | 5.87 | – | – | – | –
MKYDLIIIGSGSVGAAAGYYATRAGLNVLMTDAHMPPHQHGSHHGDTRLIRHAYGEGEKYVPLVLRAQTLWDELSRHNEEDPIFVRSGVINLGPADSTFLANVAHSAEQWQLNVEKLDAQGIMARWPEIRVPDNYIGLFETDSGFLRSELAIKTWIQLAKEAGCAQLFNCPVTAIRHDDDGVTIETADGEYQAKKAIVCAGTWVKDLLPELPVQPVRKVFAWYQADGRYSVKNKFPAFTGELPNGDQYYGFPAENDALKIGKHNGGQVIHSADERVPFAEVASDGSEAFPFLRNVLPGIGCCLYGAACTYDNSPDEDFIIDTLPGHDNTLLITGLSGHGFKFASVLGEIAADFAQDKKSDFDLTPFRLSRFQ | 4.35 ± 1.2 | 3.046 ± 0.022 | 3.23 ± 0.11 | 3.34 ± 0.26 | 3.1 ± 0.046 | 2.99 ± 0.11 | 5.49 ± 0.24 | 6.92 ± 1.5 | 3.11 ± 0.23 | 5.46 ± 0.065 | 5.55 ± 0.089 | 10.5 ± 0.16
